Assay results reported in patent US20200017583A1 (Daiichi Sankyo, published 2020).
Changes are numbered by the printed parent chain. Where no end group is shown, it is not given here. The star is where a group is joined. Biotin = O=C1N[C@H]2[C@H](CS[C@H]2CCCCC(=O)*)N1

How the values were obtained:
human GPR20 protein [1] = molecular target: T1, human GPR20 protein (human, UniProt Q99678 1-358); experiment: immunohistochemistry on paraffin-embedded GIST430 and GIST430/654 preparations, PC-3 as GPR20-negative control, DAB
T1 construct: membrane fraction on SDS-PAGE for the Western blot; The same entry is used for the endogenous GPR20 stained in GIST cell lines and clinical GIST tissue; also called hGPR20; G protein-coupled receptor 20
Protocol: Deparaffinization and antigen retrieval were carried out at 97° C. for 40 minutes with an antigen retrieval solution (Target Retrieval Solution High pH; manufactured by Dako/Agilent Technologies Inc.) using a pretreatment system for Autostainer Link (PT Link; manufactured by Dako/Agilent Technologies Inc.). Subsequent staining procedures were carried out at room temperature using an automatic staining apparatus (Dako Autostainer Link 48; manufactured by Dako/Agilent Technologies Inc.). After washing once with EnVision FLEX WASH BUFFER (manufactured by Dako/Agilent Technologies Inc.), Peroxidase Block 3% H2O2 (manufactured by Dako/Agilent Technologies Inc.) was added to the cells, which were then incubated for 5 minutes and washed once with EnVision FLEX WASH BUFFER. Protein Block serum free (manufactured by Dako/Agilent Technologies Inc.) was added to the cells, which were then incubated for 30 minutes. The solution was removed by air blow. A rat monoclonal anti-GPR20 antibody, a rabbit chimeric anti-GPR20 antibody or a rabbit type anti-GPR20 antibody was diluted into 1.0 μg/mL to 10 μg/mL with REAL Antibody Diluent (manufactured by Dako/Agilent Technologies Inc.) and reacted with the cells for 30 minutes.
DAKO Liquid DAB+Substrate Chromogen System was added to the cells, which were then incubated for a total of 10 minutes and then washed once with EnVision FLEX WASH BUFFER. EnVision FLEX Hematoxylin was added to the cells, which were incubated for 5 minutes and then washed a total of three times with EnVision FLEX WASH BUFFER and ion-exchanged water.

[2] = molecular target: T2, GPR20 fragment peptide GLEVPLFHLFARLD (human, SMILES …); experiment: BLI (Octet RED384), peptide on streptavidin sensor, antibody as analyte, 1:1 model
T2 construct: Captured on streptavidin sensor chips
T2 peptide: Biotin-GLEVPLFHLFARLD-NH2
Description: (§1) For the detailed analysis of the epitope, a peptide consisting of amino acid positions 29 to 48 of GPR20, and peptides in which a terminal amino acid residue was continuously truncated one by one from this peptide, were synthesized, and then N-terminally biotinylated and C-terminally amidated to produce a GPR20 fragment peptide library (Sigma-Aldrich Japan G.K.). […] PBS-T was used as a buffer solution, and the sensor chips used were streptavidin sensor chips (manufactured by Pall ForteBio Corp.). […] Subsequently, the sensor chip was dipped in the buffer solution, and a dissociation phase was monitored for 270 seconds. […] The data was analyzed using 1:1 binding models to calculate association rate constant ka, dissociation rate constant kd and dissociation constant KD (KD=kd/ka).

[3] = molecular target: T3, GPR20 fragment peptide GLEVPLFHLFARLDEEL (human, SMILES …); experiment: as above
T3 construct: Captured on streptavidin sensor chips
T3 peptide: Biotin-GLEVPLFHLFARLDEEL-NH2
Description: as §1

[4] = molecular target: T4, GPR20 fragment peptide GLEVPLFHLFARLDE (human, SMILES …); experiment: as above
T4 construct: Captured on streptavidin sensor chips
T4 peptide: Biotin-GLEVPLFHLFARLDE-NH2
Description: as §1

[5] = molecular target: T5, GPR20 fragment peptide GLEVPLFHLFARLDEELHGT (human, N-terminally biotinylated and C-terminally amidated); experiment: as above
T5 construct: Captured on streptavidin sensor chips; also called peptide consisting of amino acid positions 29 to 48 of GPR20
T5 peptide: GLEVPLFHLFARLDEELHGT
Description: as §1

[6] = molecular target: T6, GPR20 fragment peptide GLEVPLFHLFAR (human, SMILES …); experiment: as above
T6 construct: Captured on streptavidin sensor chips
T6 peptide: Biotin-GLEVPLFHLFAR-NH2
Description: as §1

[7] = molecular target: T7, GPR20 fragment peptide LEVPLFHLFARLDEEL (human, SMILES …); experiment: as above
T7 construct: Captured on streptavidin sensor chips
T7 peptide: Biotin-LEVPLFHLFARLDEEL-NH2
Description: as §1

[8] = molecular target: T8, GPR20 fragment peptide EVPLFHLFARLDEEL (human, SMILES …); experiment: as above
T8 construct: Captured on streptavidin sensor chips
T8 peptide: Biotin-EVPLFHLFARLDEEL-NH2
Description: as §1

[9] = molecular target: T9, GPR20 fragment peptide GLEVPLFHLFARL (human, SMILES …); experiment: as above
T9 construct: Captured on streptavidin sensor chips
T9 peptide: Biotin-GLEVPLFHLFARL-NH2
Description: as §1

[10] = molecular target: T10, GPR20 fragment peptide VPLFHLFARLDEEL (human, SMILES …); experiment: as above
T10 construct: Captured on streptavidin sensor chips
T10 peptide: Biotin-VPLFHLFARLDEEL-NH2
Description: as §1

[11] = molecular target: T11, GPR20 fragment peptide GLEVPLFHLFARLDEE (human, SMILES …); experiment: as above
T11 construct: Captured on streptavidin sensor chips
T11 peptide: Biotin-GLEVPLFHLFARLDEE-NH2
Description: as §1

human GPR20 protein [12] = molecular target: T1, human GPR20 protein; experiment: flow cytometry, hybridoma culture supernatant on 293T cells transiently expressing human GPR20 versus empty-vector 293T cells, anti-rat IgG FITC
Protocol: The cells were left standing at 4° C. for 1 hour. […] The cells were left standing at 4° C. for 1 hour.

[13] = molecular target: T12, synthetic peptide 2 consisting of amino acid positions 30 to 48 of human GPR20 (human, also: biotinylated, position not given here); experiment: peptide-ELISA, biotinylated peptide on NeutrAvidin plate, antibody at 1 µg/mL, anti-rat IgG-peroxidase, chemiluminescence
T12 construct: Captured on NeutrAvidin plates
T12 peptide: LEVPLFHLFARLDEELHGT

[14] = molecular target: T13, C-terminally biotinylated synthetic peptide 1 consisting of amino acids at positions 1 to 48 from the … (human, C-terminally biotinylated); experiment: as above
T13 construct: Captured on NeutrAvidin plates
T13 peptide: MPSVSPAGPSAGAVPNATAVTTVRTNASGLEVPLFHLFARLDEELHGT
Protocol: NeutrAvidin (Pierce/Thermo Fisher Scientific Inc.) diluted to 1 μg/mL with PBS was added at 100 μL/well to 96-well Maxisorp plate (Nunc), and the plate was left standing overnight at 4° C. The solution was removed, and the plate was washed three times with 300 μL/well of PBS containing 0.05% Tween 20 (hereinafter, referred to as PBST). […] The plate was left standing at room temperature for 1 hour. The solution was removed from the plate, and each well was washed three times with PBST. Then, Blocker Casein in PBS (Thermo Fisher Scientific Inc.) was added at 100 μL/well, and the plate was left standing overnight at room temperature. The solution was removed, and each well was washed three times with PBST. […] The solution was removed, and each well was washed three times with PBST. Then, Anti-Rat IgG-Peroxidase antibody produced in rabbit (Jackson ImmunoResearch Laboratories, Inc.) 500-fold diluted with PBS was added at 100 μL/well, and the plate was left standing at room temperature for 1 hour. The solution was removed, and each well was washed three times with PBST. Then, SuperSignal ELISA Pico Chemiluminescent Substrate was added at 100 μl/well, and the plate was left standing at room temperature for 10 minutes, followed by the measurement of chemiluminescence using a plate reader (SpectraMax M3, Molecular Devices, LLC).

B1: rabbit chimeric anti-GPR20 antibody OcChimera (antibody)
heavy: EVQLVESGGGLVQPGRSLKLSCVASGFTFNNYWMTWIRQAPGKGLEWVASITNIDGSSYYPDSVKGRFTISRDNVKSTLYLQMNSLRSEDTATYYCTRGSFDYWGQGVMVTVSSGQPKAPSVFPLAPCCGDTPSSTVTLGCLVKGYLPEPVTVTWNSGTLTNGVRTFPSVRQSSGLYSLSSVVSVTSSSQPVTCNVAHPATNTKVDKTVAPSTCSKPTCPPPELLGGPSVFIFPPKPKDTLMISRTPEVTCVVVDVSQDDPEVQFTWYINNEQVRTARPPLREQQFNSTIRVVSTLPITHQDWLRGKEFKCKVHNKALPAPIEKTISKARGQPLEPKVYTMGPPREELSSRSVSLTCMINGFYPSDISVEWEKNGKAEDNYKTTPAVLDSDGSYFLYNKLSVPTSEWQRGDVFTCSVMHEALHNHYTQKSISRSPGK
light: DIQMTQSPSVLSASVGDRVTLNCKASQNVNKYLNWFQQKLGEPPKLLIYNTNNLQTGIPSRFSGSGSGTDYTLTISSLQPEDVATYFCFQHVSWLTFGSGTKLEIKRDPVAPSVLLFPPSKEELTTGTATIVCVANKFYPSDITVTWKVDGTTQQSGIENSKTPQSPEDNTYSLSSTLSLTSAQYNSHSVYTCEVVQGSASPIVQSFNRGDC
notes: 04-093 variable regions on rabbit IGHG*02 and IGKC2*01 constant regions; also called rabbit chimeric antibody; OcHch/OcLch
binding result (human GPR20 protein [1]): binds

B2: rat anti-human GPR20 antibody 04-093 (antibody, rat IgG2b)
heavy: EVQLVESGGGLVQPGRSLKLSCVASGFTFNNYWMTWIRQAPGKGLEWVASITNIDGSSYYPDSVKGRFTISRDNVKSTLYLQMNSLRSEDTATYYCTRGSFDYWGQGVMVTVSSAQTTAPSVYPLAPGCGDTTSSTVTLGCLVKGYFPEPVTVTWNSGALSSDVHTFPAVLQSGLYTLTSSVTSSTWPSQTVTCNVAHPASSTKVDKKVERRNGGIGHKCPTCPTCHKCPVPELLGGPSVFIFPPKPKDILLISQNAKVTCVVVDVSEEEPDVQFSWFVNNVEVHTAQTQPREEQYNSTFRVVSALPIQHQDWMSGKEFKCKVNNKALPSPIEKTISKPKGLVRKPQVYVMGPPTEQLTEQTVSLTCLTSGFLPNDIGVEWTSNGHIEKNYKNTEPVMDSDGSFFMYSKLNVERSRWDSRAPFVCSVVHEGLHNHHVEKSISRPPGK
light: DIQMTQSPSVLSASVGDRVTLNCKASQNVNKYLNWFQQKLGEPPKLLIYNTNNLQTGIPSRFSGSGSGTDYTLTISSLQPEDVATYFCFQHVSWLTFGSGTKLEIKRADAAPTVSIFPPSTEQLATGGASVVCLMNNFYPRDISVKWKIDGTERRDGVLDSVTDQDSKDSTYSMSSTLSLTKADYESHNLYTCEVVHKTSSSPVVKSFNRNEC
notes: Rat IgG2b, kappa, from a hybridoma; the full-length chains were made by linking them to known rat constant regions (IMGT IGHG2B*01, IGKC*01); also called 04-093 antibody; rat anti-GPR20 antibody 04-093
Kd [2]: < 1 pM | Kd [3]: < 1 pM | Kd [4]: < 1 pM | Kd [5]: < 1 pM | Kd [6]: 13 nM | Kd [7]: < 1 pM | Kd [8]: 1.1 nM | Kd [9]: 1.1 nM | Kd [10]: 5.7 nM | Kd [11]: < 1 pM | binding result (human GPR20 protein [12]): binds | binding result [13]: binds | binding result [14]: binds

B3: rabbit type anti-GPR20 antibody OcH1L1 (antibody, V domains shown)
VH: EVQLKESGGGLVKPGGSLKLCCKASGFTFNNYWMTWIRQAPGKGLEWIASITNIDGSSYYASWVNGRFTLSRDNAQSTVCLQLNSLTAADTATYFCTRGSFDYWGQGTLVTVSS
VL: DIVMTQTPSPVSAAVGGTVTINCKASQNVNKYLNWFQQKPGQPPKLLIYNTNNLQTGVPSRFSGSGSGTDYTLTISGVQCDDAATYYCFQHVSWLTFGGGTEVVVKG
notes: CDR-grafted rabbit type form of 04-093; also called OcH01/OcL01
binding result (human GPR20 protein [1]): binds

B4: rabbit type anti-GPR20 antibody OcH2L1 (antibody, V domains shown)
VH: B3 VH with C21S, A61P, S62D, W63S, N65K, L70I, V79L, C80Y
VL: B3 VL
notes: CDR-grafted rabbit type form of 04-093; also called OcH02/OcL01
binding result (human GPR20 protein [1]): binds
